The target of the assay is Orai1-GFP (UniProt Q96D31). As to the kind of experiment: FRET or BRET. (In general: BRET reads energy transfer from a luciferase to a nearby fluorophore.)
UniProt Q96D31, sequence (Q96D31 whole entry): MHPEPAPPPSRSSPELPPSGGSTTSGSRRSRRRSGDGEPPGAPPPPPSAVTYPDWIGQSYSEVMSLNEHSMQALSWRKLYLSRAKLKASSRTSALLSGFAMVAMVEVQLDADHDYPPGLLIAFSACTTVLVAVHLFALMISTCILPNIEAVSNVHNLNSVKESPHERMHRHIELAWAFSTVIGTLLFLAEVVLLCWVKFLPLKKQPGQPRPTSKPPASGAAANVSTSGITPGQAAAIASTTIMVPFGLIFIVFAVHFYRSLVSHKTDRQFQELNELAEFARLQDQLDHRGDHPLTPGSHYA

For the substance STIM1A-mCherry (natural protein), the FRET efficiency (E-FRET) was determined as 0.26.

These data come from paper PMC8892257.
